In patent US20150322137A1 (EVEC, published 2015):

Key:
Assay in all cases: cell-based or functional assay
[1] = target: T1, F protein of human metapneumovirus strain JPS02-76 (type B1), on infectious virus (human metapneumovirus, strain JPS02-76 …, UniProt Q6WB98 19-539)
[2] = target: T2, F protein of human metapneumovirus strain JPS03-180 (type A1), on infectious virus (human metapneumovirus, strain JPS03-180 …)
[3] = target: T3, F protein of human metapneumovirus strain JPS05-21 (type B2), on infectious virus (human metapneumovirus, strain JPS05-21 …)
[4] = target: T4, F protein of human metapneumovirus strain JPS03-178 (type A2), on infectious virus (human metapneumovirus, strain JPS03-178 …)
[5] = target: T2, F protein of human metapneumovirus …; remark: listed apart in the source
[6] = target: T3, F protein of human metapneumovirus …; remark: listed apart in the source
[7] = target: T1, F protein of human metapneumovirus …; remark: listed apart in the source
[8] = target: T4, F protein of human metapneumovirus …; remark: listed apart in the source
[9] = target: T2, F protein of human metapneumovirus …; remark: listed apart in the source
[10] = target: T3, F protein of human metapneumovirus …; remark: listed apart in the source
[11] = target: T1, F protein of human metapneumovirus …; remark: listed apart in the source
[12] = target: T2, F protein of human metapneumovirus …; remark: listed apart in the source
[13] = target: T3, F protein of human metapneumovirus …; remark: listed apart in the source
[14] = target: T1, F protein of human metapneumovirus …; remark: listed apart in the source
[15] = target: T4, F protein of human metapneumovirus …; remark: listed apart in the source

Binder	IC50, cell-to-cell spread inhibitory activity (LLC-MK2 cells stably expressing TMPRSS2) [1]	IC90, cell-to-cell spread inhibitory activity (LLC-MK2 cells stably expressing TMPRSS2) [1]	IC50, neutralizing activity (hMPV infection of LLC-MK2 cells; GraphPad Prism 6) [2]	IC50, neutralizing activity (hMPV infection of LLC-MK2 cells; GraphPad Prism 6) [3]	IC50, neutralizing activity (hMPV infection of LLC-MK2 cells; GraphPad Prism 6) [4]	IC90, neutralizing activity (hMPV infection of LLC-MK2 cells; GraphPad Prism 6) [5]	IC90, neutralizing activity (hMPV infection of LLC-MK2 cells; GraphPad Prism 6) [6]	IC90, neutralizing activity (hMPV infection of LLC-MK2 cells; GraphPad Prism 6) [7]	IC90, neutralizing activity (hMPV infection of LLC-MK2 cells; GraphPad Prism 6) [8]	IC50, neutralizing activity (hMPV infection of LLC-MK2 cells) [9]	IC50, neutralizing activity (hMPV infection of LLC-MK2 cells) [10]	IC50, neutralizing activity (hMPV infection of LLC-MK2 cells) [11]	IC60, neutralizing activity (hMPV infection of LLC-MK2 cells; GraphPad Prism 6) [12]	IC60, neutralizing activity (hMPV infection of LLC-MK2 cells; GraphPad Prism 6) [13]	IC60, neutralizing activity (hMPV infection of LLC-MK2 cells; GraphPad Prism 6) [14]	IC60, neutralizing activity (hMPV infection of LLC-MK2 cells; GraphPad Prism 6) [15]
EV046141 (antibody, human IgG1, lambda, V domains shown) VH: QVQLVQSGAEVKKPGASVKVSCKASGYTFADYYIHWLRQAPGQGLEWLGRINPSNSRTTYPQKFQGRVTVTRDTSTSTVYMELSSLRSADTAVYYCARDGLRMGYYYMDVWGKGTTVTVSS VL: QSVLTQPPSVSGAPGQRVTISCTGSSSNIGAGYDVHWYQQIPGTAPKLLIFGNYNRPSGVPDRFSASKSGTSASLAITGLQAEDEAHYYCQSYDTTLDGAVFGGGTKLTVLG	36.3 ng/mL	171 ng/mL	214 ng/mL	524 ng/mL	2110 ng/mL	863 ng/mL	836 ng/mL	2180 ng/mL	2520 ng/mL	0.2 µg/mL	0.44 µg/mL	0.74 µg/mL	276 ng/mL	571 ng/mL	883 ng/mL	2180 ng/mL
EV046124 (antibody, human IgG1, lambda, V domains shown) VH: QVQLVQSGTELKKPGASVKVSCKASGYTFTDYSMHWLRQAPGESLEWMGWVNGGPLDTKYSPTFQDRVSFSRDVFATTAYMDLSSLGPEDTAVYYCARGWGITAYRGDAFDLWGQGTMVIVSS VL: SFVLTQPPSVSVAPGKSARITCGASNIESKSVHWYQQKPGQAPVVVVYDDDDRPSGIPERFSGSNSGNTATLIINRVEVGDEADYYCQVWDSTSDMYVFGAGTKVTVLG	48.2 ng/mL	260 ng/mL	76.7 ng/mL	255 ng/mL	40.7 ng/mL	365 ng/mL	677 ng/mL	952 ng/mL	188 ng/mL	0.07 µg/mL	0.24 µg/mL	0.29 µg/mL	102 ng/mL	305 ng/mL	423 ng/mL	53.9 ng/mL
EV046130 (antibody, human IgG1, lambda, V domains shown) VH: QVQLVESGGGVAQPGRSLRLSCAASGFTLSNYGMHWVRQAPGKGLEWVAVIWYDGRNKYYADSVKGRFTISRDDFKNTLDLQMNSLRAEDTAVYYCARDQHAGITMIEDWGQGTLVTVSS VL: QSALTQPPSASGSPGQSVTISCTGTSSDVGYFKYVSWYQQHPGKAPKLLIYEVSKRPSGVPDRFSGSRSGNTASLTVSGLQADDEADYYCGSYAGNNNIIFGGGTKLTVLG	34.9 ng/mL	147 ng/mL	220 ng/mL	105 ng/mL	1950 ng/mL	486 ng/mL	358 ng/mL	714 ng/mL	2300 ng/mL	0.21 µg/mL	0.089 µg/mL	0.23 µg/mL	254 ng/mL	132 ng/mL	354 ng/mL	2010 ng/mL
